According to the nanobody polyreactivity screen of Harvey et al. (2022):

Assay: yeast display, Sf9 membrane polyspecificity reagent, FACS + sequencing; frameworks hold sequencing errors
Summary of the method: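 After 36–48 hours of galactose induction, yeast (Saccharomyces cerevisiae BJ5465) displaying a synthetic nanobody library were stained at 4 °C for 1 hour with 10% biotinylated, detergent-solubilized Sf9 membrane reagent. Streptavidin microbeads enriched the stained cells before FACS sorting into low and high (top ~1%) gates on anti-HA and streptavidin fluorescence. Each clone's polyreactivity label reflects its gate of origin.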

**Q.** For “QVQLVESGGGLVQAGGSLRLSCAASGFTFRFYAMGRYRQAPGKERELVAAISGSGGSTYYADSVKGRFTISRDNAKNTVFLQMNSLKPEDTAVYYCNAGRWLYWYDRSDYWGQGTQVTVSS”, which “polyreactivity (PSR sort gate)” value is on record?
**A.** Its value is “high polyreactivity”.

**Q.** For “QVQLVESGGGLVQAGGSLRLSCAASVRTFEGYAMGWDRQEPGKERELVAAISKSGGRTYYADSVKGRFTISRDNAKNTVYLQMNSLKPEHTAVYYCAARVSSGSNSDYWGQGTQVTVSS”, which “polyreactivity (PSR sort gate)” value is on record?
**A.** Its value is “high polyreactivity”.

**Q.** Which “polyreactivity (PSR sort gate)” value does the source give for “QVQLVESGGGLVQAGGRLRLSCAASGIIFSFYTMGWYIQAPGKERELVAAITWSGGSTYYADSVKGRFTISRDNAKNTVYFQMNSLKPEDTSVYYCNARNPWSKRSQGYSWGQGTQVTVSS” here?
**A.** Its value is “low polyreactivity”.

**Q.** With “QVQLVESGGGLVQAGGSLRLSCAASGSIFVGNVMGWYRQAPGKERELVAAISRTGGTYYADSVKGRFTISRDNAKNTVYLQMNSLKPEDTAVYYCNKVSLRQSRMYYWGQGTQVTVSS” as the sequence, how does the “polyreactivity (PSR sort gate)” value read?
**A.** Its value is “high polyreactivity”.

**Q.** With “QGQRVESGGGLVQAGGSLRLSCAASGRIFRGYDMGWYRQSPGKERELVAAISGSGGSTYYADSVKGRFTISRDYAKNSVYLQMNSLQPEDTAVYYCAADQQSTGDWAGDYWGQGTQVTVSS” as the sequence, how does the “polyreactivity (PSR sort gate)” value read?
**A.** Its value is “low polyreactivity”.

**Q.** For “QVQLVESGGGLVQAGGSLRLSCAASGSIFIYAMGWYRQAPGKERELVATISWSGTSTYSDSVKGRFTISRDNAKNTVYLQMNSLKPEDTAVYYCNKLKRTYYSSGYPHDYWGQGTQVTVSS”, which “polyreactivity (PSR sort gate)” value is on record?
**A.** The value was “low polyreactivity”.

**Q.** Which “polyreactivity (PSR sort gate)” value does the source give for “QVQLVESGGGLVQAGGSLRLSCAASGSIFASYAMGWYRQAPGKERELVAAISRRAVRTYYADSVKGRFTISRDNAKNTVYLQMNSLKPEDTAVYYCNAASSLPGYDYWGQGTQVTVSS” here?
**A.** Its value is “high polyreactivity”.

**Q.** Which “polyreactivity (PSR sort gate)” value does the source give for “QVQLVESGGGLVQAGGSLRLSCAASGSIFVTNTMGWYRQAPGKERELVAAITYSGGSTYYADSVKGRFTISRDNAKNNVYLQMNSLKPEDTAVYYCAARRARYHVEYYYWGQGTQVTVSS” here?
**A.** Its value is “high polyreactivity”.

**Q.** With “QVQLVESGGGLVQAGGSLRLSCAASGFNFGCYCMGWYIQAPGKERELVAAITWSGVRTYYADSVKGRFTISRDNAKNTVYLQMNSLKPEDTAVYYCAASGEGGYLENNEFDYWGQGTQVTVSS” as the sequence, how does the “polyreactivity (PSR sort gate)” value read?
**A.** Its value is “low polyreactivity”.

**Q.** For “QVQLVESGGGIVQAGGSLRLSCAASGSTFYKYAMGWYRQAPGKERELVASISRSGGSTSYADSVKGRFTISRDNAKNTVYLQMNSLKPEDTAVYYCAARSLSWTPYYYWGQGTQVTVSS”, which “polyreactivity (PSR sort gate)” value is on record?
**A.** Its value is “high polyreactivity”.

**Q.** For “QVQLVESGGGLVQAGGSLRLSSAASGSTFDHYAMGWYRQAPGKERELVAAITWSGGRTYYADSVKGRFTISRDNAKNTVYFQMNSLKPEDTAVYYCAARGYQIRVANYKYDSWGQGTQVTVSS”, which “polyreactivity (PSR sort gate)” value is on record?
**A.** The value was “low polyreactivity”.

**Q.** For “QVQLVESGGGLVQAGGSLRLSCAASGRTFGVNAMGWYRQAPGKERELVAAISRSGGSTYYADSVKGRFTISRDNAKTTVYLQMNSLKPEDTEVYYCAKSYFGHHLTGFGYWGQGTQVTVSS”, which “polyreactivity (PSR sort gate)” value is on record?
**A.** The value was “low polyreactivity”.

**Q.** With “QVQLVESGGGLVQAGGSLRISCAASGYIFTGNAMGWYRKAPGKEREFVAAISWSGGSTYYADSVKGRFTISRDNAKNTVYLQMNSLKPEDTAVYYCNKYRPYGRIYHLAYGRDYWGQGTQVTVSS” as the sequence, how does the “polyreactivity (PSR sort gate)” value read?
**A.** The value was “high polyreactivity”.

**Q.** With “QVQVVESGGGLVQAGGSLRLSCAASGFIFSFYAMGWYRQAPGKERELVAAINWSGGSTYYADSVKGRFTISRDNAKNTVYLQMNSLKPEDTAVYYCNAVQYFSIPKPVWLFVLRYYYWGQVTQVTVSS” as the sequence, how does the “polyreactivity (PSR sort gate)” value read?
**A.** Its value is “low polyreactivity”.

**Q.** With “QDQLVESGGGLVQAGCSLRLSCAASGRIFSWYTMGWYRPAPGKERELVAVITSGGTTKYADSVKGRITISRDNAKNTVYLQMNSLKPEDTAVYYCNVAGRDYAVRWGSFDYWGQGTQVTVSS” as the sequence, how does the “polyreactivity (PSR sort gate)” value read?
**A.** The value was “low polyreactivity”.

**Q.** With “QVQLVESGGGLVQAGGSLRLSCAASGSTFAINAMGWYRQAPGKERELVAAMSSSGSTNYADSGNGRFTISRDNAKNTVYLQMNSLKPEDTAVYYCAADRVWGTPQAYVPSQFDYWGQGTQVTVSS” as the sequence, how does the “polyreactivity (PSR sort gate)” value read?
**A.** The value was “low polyreactivity”.

**Q.** Which “polyreactivity (PSR sort gate)” value does the source give for “QVQLVESGGGLVQAGGSLRLSCAASGRIFYYYAMGWYRQAPGKERELVAGISSGSSTNYADSVKGRFTISRDNAKNTVYLQMNSLKPEDTAVYYCAAYPYFSVAANDDYWGQGTQVTVSS” here?
**A.** Its value is “low polyreactivity”.

**Q.** For “QVQLVESGGGLVQAGGSLRLSSAASGSTSFQNAMGWYRQATGKEREFVAAISGSGDRTNYADSVKGRFTISRDNAMYTVYVQMNSLKPEDTAVYYCAAVRGYPPSNYYYWGQGTQVTVSS”, which “polyreactivity (PSR sort gate)” value is on record?
**A.** Its value is “high polyreactivity”.

**Q.** For “QVQLVESGGGLVQAGGSLRLSCAASGSTLFIYAMGWYRQAPGKEREFVAGISYSGGSTYYADSVKGRFTISRDNAKNTVYLQMNSLKPEDTAVYYCAARTFSKPLTYRPYSGLFYYWGQGTQVTVSS”, which “polyreactivity (PSR sort gate)” value is on record?
**A.** Its value is “high polyreactivity”.

**Q.** For “QVQLVESGGGLVQEGGSLRLSCAASGSIFSGYAMGWYRQAPGKERELVAGITWSGGSTYYADSVKGRFTISRDNAKNTVYLQMNSLKPEDTSVYYCAAKYYWYYSYSGIPLFDYWGQGTQVTVSS”, which “polyreactivity (PSR sort gate)” value is on record?
**A.** The value was “low polyreactivity”.

**Q.** For “QVQLVESGGGLVQAGGSLRLSCAASGSIFKFYAMGWYRQAPGKERELVAAINYNDINTYYADSVKGRFTISRDNAKNTVYLQMNRLKPEDTAVYYCNAELNVQYLYGYTGEYDYWGQGTQVTVSS”, which “polyreactivity (PSR sort gate)” value is on record?
**A.** Its value is “low polyreactivity”.

**Q.** With “QVQLVESGGGLVQAVGSLRLSCAASGSIFDVNAMGWYRQAPGKERELVAAISQRGTRTYYADSVKGRFTISRDNAKNTVYLQMNSLKPEDTAVYYCNRGGWRQYDSWGQGTQVTVSS” as the sequence, how does the “polyreactivity (PSR sort gate)” value read?
**A.** The value was “high polyreactivity”.

**Q.** For “QVQLVESGVGLVQAGGSLRLSCAASGRTFNSYAMGWYRQAPGKERELVATISSRGGNTFYADSLKGRCTISRDNAKNTVYLQMNSLKPEDTAVYYCAARRGVRKYPSAGYEYWGQGTQVTVSS”, which “polyreactivity (PSR sort gate)” value is on record?
**A.** Its value is “high polyreactivity”.

**Q.** Which “polyreactivity (PSR sort gate)” value does the source give for “QDQLVESGGGLVQAGGSLRLSCAASGITFPGYPMGWYRHAPGKEREFVAAISWGGVSTYYADSVMGRFTISRDNAKNTVYLQMNSLKPEDTAVYYCNAEYPWSVVGYDYWGQGTQVTVSS” here?
**A.** The value was “low polyreactivity”.

**Q.** For “QVQLVESGGGLVQAGGILRLSCAASGRIFRPNAMGWYRQAPGKERELVAAISSGGSTYYADSVKGRFTLSRDNAKNSVYLQMNSLKPEDSAVYYCNAKASFWSPYDYWGQGTQVTVSS”, which “polyreactivity (PSR sort gate)” value is on record?
**A.** The value was “high polyreactivity”.

**Q.** With “QVHLVESGGGLVQAGGSIRLSCAASGRTFAYNVKGWYIQAPGKVREVVAGISFGAGSTYYADSVKGRFTISRDNAKNTVYLQMNSLKPEDTAVYYCATGRRGTRYPRGYDYWGQGTQVTVSS” as the sequence, how does the “polyreactivity (PSR sort gate)” value read?
**A.** The value was “high polyreactivity”.

**Q.** Which “polyreactivity (PSR sort gate)” value does the source give for “QVQLEESGGGLVQAGGSLRLSCAASGFTFSLYAMGWYRQAPGKERELVAAISTSGGSTYYADSVKGRFTISRDNAKNTVYLQMNSLKPEDTAVYYCAATTVYSRAYYYVTYWYGYWGQGTQVTVSS” here?
**A.** Its value is “low polyreactivity”.

**Q.** For “QVQLEESGGGLVQAGGSLRLSCAASGRTFYVYTMGWYRQAPRKERELFAGISYSGGSTYYADSVKGRFTISRDTAKKTVYLQKYSLKPEDTAVYYCNAELYFPYFDGKTRHGGYWGQGSQVTVSS”, which “polyreactivity (PSR sort gate)” value is on record?
**A.** The value was “low polyreactivity”.

**Q.** With “QVQLVESRGGLVQAGGSLRLSCPASGLIYVAYAMGWYRQAPGKERELVAAISRNGGSTYYADSVKGRFTISRDNAKNTVYLQMNSLKPEDTAVYYCAARYAYYTARYTQVKGLDYWGQGTQVTVSS” as the sequence, how does the “polyreactivity (PSR sort gate)” value read?
**A.** The value was “high polyreactivity”.

**Q.** Which “polyreactivity (PSR sort gate)” value does the source give for “QDQLVESGGGLVQAGGSLRLSCAASGRIFAGNARGWYRQAPGKERELVATITRGGSTNYADSVKRPFTISRDNAKNTVYLQMNSLNPEDTAVYYCNADIRRHGGYAHVYWGQGTQVTVSS” here?
**A.** Its value is “low polyreactivity”.

**Q.** For “QVQLVESGGGLVQAGGSLRLSCAASGITFTRNAMGWYRQAPGKERELVAAISRRSGSTYYADSVKGRFTISRDNAKNTVYLQMNSLKPEDTAVYYCAATYSVHFVRYGYWGQGTQVTVSS”, which “polyreactivity (PSR sort gate)” value is on record?
**A.** Its value is “high polyreactivity”.
